The text below walks through data of the supplement of paper PMC10567573.

± gives the standard deviation.

This data set in a line: protein stability index of a GFP-peptide fusion (GPS, HEK-293T) (PSI 1-6); higher = more stable. Conditions: c terminus: a fixed tail appended.
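Also: 24-mer peptide tiles fused after GFP, lentivirally expressed, FACS-sorted into six equal bins by GFP/DsRed ratio, decoded by Illumina sequencing, PSI is the read-weighted mean bin number.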

Consider AGALLRLPSERLDFSMAEALNQEF [PRPH], for which the protein stability index is 3.32 ± 0.3 (treatment: DMSO) and 3.52 ± 0.35 (treatment: MLN4924 1 uM, 8 h).
On the same counts, the results for QDGSPTTSRRPSGTGTGPEDGRPS [PDLIM4] are 5.37 ± 0.22 and 5.66 ± 0.16.
For VILIFHCEFSSERGPRMCRFIRER [CDC25B], in that order: 2.78 ± 1.1 and 2.64 ± 0.83.
On the same counts, the results for LFEEILSNSRQLKWLSCGFMLEIV [FBXO33] are 3.02 ± 0.69 and 2.79 ± 0.57.
With LSLYQLSLERGTALFAQVQRGALP [RSAD1], the protein stability index amounted to 2.23 ± 0.36 (treatment: DMSO) and 2.32 ± 0.44 (treatment: MLN4924 1 uM, 8 h).
For FVFFVLLNMFLAIINDTYSEVKEE [PKD2L1], in that order: 3.36 ± 0.23 and 3.12 ± 0.26.
On the same counts, the results for SWMCTRSGNMLGRHFFTSWASCLQ [WDFY1] are 1.86 ± 0.32 and 2.33 ± 0.22.
On the same counts, the results for HVMGLYPDLLPTDYRKQLQYPNPL [VPS39] are 2.34 ± 0.28 and 2.59 ± 0.24.
On to NAKTEQGPTGVTMTSNPITWGQIK [CDK11A], for which the protein stability index came out at 4.19 ± 0.16 (treatment: DMSO) and 4.12 ± 0.24 (treatment: MLN4924 1 uM, 8 h).
On the same counts, the results for QPSFEPTKNKELTDEFRELRATVE [FADS1] are 4.98 ± 0.19 and 4.86 ± 0.35.
On the same counts, the results for KGTILYLQKDEYRPDKALSEGDLK [PSD2] are 3.99 ± 0.21 and 4.04 ± 0.18.
On the same counts, the results for EAITDEERAPTATFHDSKHNIVHV [WDFY2] are 4.72 ± 0.13 and 4.63 ± 0.3.
For the sequence APQNLTRWTFEKACHPFLLGPPLV [TOR1AIP2], the protein stability index runs as follows: (treatment: DMSO) 2.4 ± 0.21; (treatment: MLN4924 1 uM, 8 h) 2.08 ± 0.18.
On the same counts, the results for WTVWSGNRASLYSFPEPEAAQPMT [PRAME] are 2.45 ± 0.034 and 2.57 ± 0.25.
Take VNLLHIESRKSKRRNSEFEIFVDC [TPH1]: the protein stability index is, setting by setting: (treatment: DMSO) 2.26 ± 0.52; (treatment: MLN4924 1 uM, 8 h) 2.4 ± 0.35.
For EEVTRLGAQVKELEEKCQQPASEL [TRIM15], in that order: 5.5 ± 0.12 and 5.52 ± 0.13.
On the same counts, the results for SLEHVQLFDLMRRMLEFDPAQRIT [CLK3] are 2.31 ± 0.29 and 2.07 ± 0.36.
For CCLVKMESLEPDAQVLMLGQILEL [FANCE], in that order: 3.04 ± 0.15 and 2.83 ± 0.48.
For DVMLEELSLLTNRGSKMFKLRQMR [MYOZ1], the protein stability index came to 2.48 ± 0.19 (treatment: DMSO) and 2.67 ± 0.29 (treatment: MLN4924 1 uM, 8 h).
For RVTSLANLISPVRNGAVRRFGQTI [NET1], in that order: 2.55 ± 0.14 and 2.63 ± 0.33.
On the same counts, the results for TEELNKEVASNTEMIQTSKTEITD [KRT15] are 5.49 ± 0.29 and 5.52 ± 0.19.
On the same counts, the results for EEKPQENKTWREQYLRLPDAPEQR [ELOA2] are 5.18 ± 0.28 and 4.88 ± 0.11.
Turning to KRPAPRTAPRQEKHERTHEIIPIN [SPRY1], the protein stability index by setting is: (treatment: DMSO) 4.03 ± 0.18; (treatment: MLN4924 1 uM, 8 h) 4.2 ± 0.15.
On the same counts, the results for PEPRSEVVPARLKRASAPTFDNDY [RIPK4] are 4.86 ± 0.47 and 4.63 ± 0.36.
For GGGYSSVRYSDCCERVVINVSGLR [KCNA4], in that order: 2.23 ± 0.26 and 2.34 ± 0.29.
On the same counts, the results for VKAKEQIENYKKQTRNGLGKDHEI [FUT8] are 4.59 ± 0.17 and 4.76 ± 0.16.
For the sequence EKTNGATPLLMAARYGHLDMVEFL [FEM1C], the protein stability index is, setting by setting: (treatment: DMSO) 2.91 ± 0.2; (treatment: MLN4924 1 uM, 8 h) 3.05 ± 0.37.
On the same counts, the results for TRSHLWEAAQVVPDGLGLDEAREE [TRIB3] are 5.13 ± 0.24 and 5.13 ± 0.28.
As for QLFTEYGRLAMDEIFQKPFQTLMF [ATL3], the protein stability index runs as follows: (treatment: DMSO) 2.33 ± 0.49; (treatment: MLN4924 1 uM, 8 h) 2.35 ± 0.47.
On the same counts, the results for LQLLLGCKARMERDGYGMTPLLAA [FEM1A] are 2.38 ± 0.5 and 2.24 ± 0.29.
On the same counts, the results for HESFFSLFSDPRSTRLTRIHLRED [ZER1] are 3.04 ± 0.26 and 3.14 ± 0.11.
PAAPFDKKCGRENWTVAFAPDGSY [WSB1]: the protein stability index reads like this: (treatment: DMSO) 2.63 ± 0.33; (treatment: MLN4924 1 uM, 8 h) 2.86 ± 0.13.
On the same counts, the results for NTLVTKTMEDTLMTVKQYEAARLE [ARFIP2] are 4.19 ± 0.3 and 4.55 ± 0.23.
For DGYGMTPLLSASVTGHTNIVDFLT [FEM1C], the protein stability index by setting is: (treatment: DMSO) 3.01 ± 0.27; (treatment: MLN4924 1 uM, 8 h) 3.1 ± 0.28.
For EKFDIVKKWGINTYKCTKQLLSER [ARFIP2], in that order: 2.78 ± 0.37 and 2.79 ± 0.19.
For KKMEQNKTAATRYRQKKRAEQEAL [ATF4], the protein stability index runs as follows: (treatment: DMSO) 4.48 ± 0.52; (treatment: MLN4924 1 uM, 8 h) 4.55 ± 0.33.
